Assay [1] deals with Staphylococcal Protein A (SpA) (Staphylococcus aureus) (UniProt P38507). The assay is described as follows: BLI.
In assay [2] the target is Streptococcal Protein G (SpG) (groups C and G of Streptococcal bacteria) (UniProt P06654). Briefly: BLI. On the technique in general: Biolayer interferometry detects binding as a change in optical thickness at a sensor tip.

Data on 28 substances can be found in paper PMC8883962.

As to “Trastuzumab Vκ6–VH5 IgG1 (from UniProt P01857)”, in assay [1], the equilibrium dissociation constant (Kd) (commonly the concentration at which binding is half-saturated) amounted to 840 pM. Take “Trastuzumab Vκ6–VH4 IgG1 (from UniProt P01857)”: the dissociation constant Kd in assay [2] came to 360 pM. “Trastuzumab Vκ2–VH1 IgG1 (from UniProt P01857)” came in with a Kd in assay [2] of 390 pM. The Kd values of the last two substances are within 1.5-fold of each other. With “Trastuzumab Vκ2–VH5 IgG1 (from UniProt P01857)”, the figures for the dissociation constant (Kd) in assay [1] and in assay [2] were 1110 pM and 270 pM, respectively. For the substance “Trastuzumab Vκ6–VH3 IgG1 (from UniProt P01857)”, the Kd came to 310 pM in assay [1] and 270 pM in assay [2]. In the case of “Pertuzumab Vκ2–VH4 IgG1 (from UniProt P01857)”, the Kd worked out at 1570 pM in assay [1] and 250 pM in assay [2]. For “Pertuzumab Vκ6–VH5 IgG1 (from UniProt P01857)”, the Kd amounted to 1260 pM in assay [1] and 260 pM in assay [2]. With “Trastuzumab Vκ2–VH3 IgG1 (from UniProt P01857)”, the Kd in assay [1] worked out at 240 pM; in assay [2] it was 290 pM. For the substance “Pertuzumab Vκ6–VH1 IgG1 (from UniProt P01857)”, the Kd in assay [1] was determined as 940 pM; in assay [2], 290 pM.

On to “Trastuzumab Vκ2–VH4 IgG1 (from UniProt P01857)”, for which the results for the dissociation constant Kd in assay [1] and in assay [2] were 1290 pM and 280 pM, respectively. As for “Trastuzumab Vκ6–VH7 IgG1 (from UniProt P01857)”, the Kd in assay [1] was determined as 600 pM; in assay [2], 300 pM. Turning to “Pertuzumab Vκ2–VH6 IgG1 (from UniProt P01857)”, the dissociation constant Kd was determined as 1550 pM in assay [1] and 320 pM in assay [2]. The corresponding values for “Pertuzumab Vκ2–VH5 IgG1 (from UniProt P01857)” are 1620 pM and 300 pM. In assay [2], “Trastuzumab Vκ5–VH3 IgG1 (from UniProt P01857)” gave a Kd of 320 pM. “Pertuzumab Vκ5–VH7 IgG1 (from UniProt P01857)” showed a Kd in assay [2] of 320 pM. In the case of “Trastuzumab Vκ6–VH1 IgG1 (from UniProt P01857)”, the Kd in assay [2] amounted to 320 pM. This lies in the sub-nanomolar range.

Consider “Pertuzumab Vκ5–VH3 IgG1 (from UniProt P01857)”, for which the Kd in assay [1] amounted to 940 pM; in assay [2] it was 340 pM.

With “Pertuzumab Vκ2–VH7 IgG1 (from UniProt P01857)”, in assay [2], the Kd was 360 pM. Turning to “Pertuzumab Vκ6–VH7 IgG1 (from UniProt P01857)”, the Kd was found to be 980 pM in assay [1] and 280 pM in assay [2]. The corresponding values for “Trastuzumab Vκ2–VH2 IgG1 (from UniProt P01857)” are 1460 pM and 690 pM. The corresponding values for “Pertuzumab Vκ6–VH2 IgG1 (from UniProt P01857)” are 790 pM and 310 pM. Regarding “Pertuzumab Vκ6–VH4 IgG1 (from UniProt P01857)”, the equilibrium dissociation constant (Kd) worked out at 810 pM in assay [1] and 270 pM in assay [2]. Take “Trastuzumab Vκ2–VH7 IgG1 (from UniProt P01857)”: the equilibrium dissociation constant (Kd) in assay [1] amounted to 530 pM; in assay [2], 230 pM.

For “Trastuzumab Vκ6–VH6 IgG1 (from UniProt P01857)”, the figures for the Kd in assay [1] and in assay [2] were 1780 pM and 510 pM, respectively. As for “Pertuzumab Vκ2–VH3 IgG1 (from UniProt P01857)”, the figures for the Kd in assay [1] and in assay [2] were 760 pM and 380 pM, respectively. The corresponding values for “Pertuzumab Vκ2–VH2 IgG1 (from UniProt P01857)” are 1820 pM and 360 pM. Regarding “Pertuzumab Vκ6–VH3 IgG1 (from UniProt P01857)”, the Kd in assay [1] was found to be 410 pM; in assay [2], 280 pM. As to “Trastuzumab Vκ2–VH6 IgG1 (from UniProt P01857)”, the dissociation constant Kd in assay [1] stood at 1790 pM. This counts as single-digit nanomolar.
